Reference: the nanobody polyreactivity screen of Harvey et al. (2022)

Test: yeast display, Sf9 membrane polyspecificity reagent, FACS + sequencing; frameworks hold sequencing errors
Summary of the method: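 Galactose-induced (36–48 hours) yeast carrying a synthetic nanobody display library were exposed to 10% biotinylated, detergent-solubilized Sf9 membrane reagent at 4 °C for 1 hour. FACS followed streptavidin microbead enrichment, using low and high (top ~1%) gates for expression (anti-HA) and reagent binding (streptavidin). Colony PCR, MiSeq 2 × 250 sequencing and CDR-length filtering followed. Labels for polyreactivity reflect the gate of origin.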

| Sequence | polyreactivity (PSR sort gate) |
| --- | --- |
| QVQLVESGGGLVQAGGSLRLSCAASGIIFYKYAMGWKRQGPGKERELVAAITSGGRRTYYADSVKGRFTISRDNAKNTVYLLMNSLKPEDTEAFYCAARFSYPWLYLFVYWGQVTQVTVSS | high polyreactivity |
| QVQLVESGGGLVQAGGSLRLSCAASGIIFYKYAMGWYRQAPGKERELVAAITSGGGRTYYADSVKGRFTISRDNAKNTVYLQMNSLKPEDTAVYYCAATRPATYAAYDYWGQGTQVTVSS | high polyreactivity |
| QVQLVESGGGLVQAGGSLRLSCAASGIIFYLNAMGWYRQAPGKERELVAAISNGTSTNYADSVKGRFTISRDNAKNTVYLQMNSLKPEDTAVFYCAADDLRYNSRSSNYRGDYWGQGTQVTVSS | low polyreactivity |
| QVQLVESGGGLVQAGGSLRLSCAASGIIFYLNAMGWYRQAPGKERELVAGITYSGGSTYYADSVKGRFTISRDNAKNTVYLQMNSLKPEDTAVYYCAARTKWYIFLYDYWGQGTQVTVSS | low polyreactivity |
| QVQLVESGGGLVQAGGSLRLSCAASGIIFYPNAMGWYRQAPGKERELVAAITSDGSTYYADSVKGRFTISRDNAKNTVYLQMNSLKPEDTAVYYCAAWDDYGYDYWGQGTQVTVSS | low polyreactivity |
| QVQLVESGGGLVQAGGSLRLSCAASGIIFYRNAMGWYRQAPGKERELVAAISKGGGSTYYADSVKGRFTISRDNAKNTVYLQMNSLKPEDTAVYYCAAKAYTYYARIGFDYWGQGTQVTVSS | high polyreactivity |
| QVQLVESGGGLVQAGGSLRLSCAASGIIFYRNAMGWYRQAPGNERELVAAITSSGGRTYYADSVKGRFTISRDNAKNTVYLQMNSLKPEDTPVYYCAATRLYWKIFYGDGDYWGQGTQVTVSS | high polyreactivity |
| QVQLVESGGGLVQAGGSLRLSCAASGIIFYRNTMGWYRQAPGKERELVAAIRRGGNTYYADSVKGRFTISRDNAKNTVYLQMNSLKPEDTAVYYCAASAGPRASYYYWGQGTQVTVSS | high polyreactivity |
| QVQLVESGGGLVQAGGSLRLSCAASGIIFYRYTMGWYRQAPGKERELVAAISSRGGSTYYADSVKGRFTISRDNAKNTVYLQMNSLKPEDTAVYYWNARSKRTARYNYWGQGTQVTVSS | high polyreactivity |
| QVQLVESGGGLVQAGGSLRLSCAASGIIFYRYTMGWYRQAPGKERELVAAITSGGDTNYADSVKGRFTISRDNAKNTVYLQMNSLKPEDTAVYYCNADWWWYLYLYDYWGQGTQVTVSS | high polyreactivity |
| QVQLVESGGGLVQAGGSLRLSCAASGIIFYVYAMGWYRQAPVKERELVAAISDTAGDTYYADSVKGRFTISRDNAKNTVYLQMNSLKPEDTAVYYCATDWFSYRGGIFDSWGQGTQVTVSS | low polyreactivity |
| QVQLVESGGGLVQAGGSLRLSCAASGIIFYYNAMGWNRKAPGKERELVAAISQRGSSTYYADSVKGRFTISRDNAQNTVYLQMNSLKPEDTAVYYCAKRFIYGRYNYWGQGTQVTVSS | high polyreactivity |
| QVQLVESGGGLVQAGGSLRLSCAASGIIFYYNAMGWYRQAPGKERELVAAISSSGGSTSYADSVKGRFTISRDNAKNTVYLQMNSLKPEDTAVYYCAADSSPAYLGFVGFDYWGQGTQVTVSS | low polyreactivity |
| QVQLVESGGGLVQAGGSLRLSCAASGIIFYYNAMGWYRQAPGKERELVATIRWRGGSTYYADSVKGRFTISRDNAKNTVYLQMNSLKPEDTAVYYCNKSYDNSSDSDYWGQGTQVTVSS | low polyreactivity |
| QVQLVESGGGLVQAGGSLRLSCAASGIIFYYNAMGWYRQAPGKEREYVASISSRGGSTYYADSVKGRFTISRDNAKNTVYLQMKSLKPEDPAVYYCAAAFDWRRQRYNYWGHGTQVTVSS | high polyreactivity |
| QVQLVESGGGLVQAGGSLRLSCAASGIIIDSNAMGWYRQAPGKERELVAAITSGGSTKYADSVKGRFTISRDNAKNTVYLQMNSLKPEDTAVYYCAAGGSYYRDDYWGQGTQVTVSS | low polyreactivity |
| QVQLVESGGGLVQAGGSLRLSCAASGIIIDSNAMGWYRQAPGKERELVAAITSGGSTKYADSVKGRFTISRDNAKNTVYLQMNSLKPEDTAVYYCNADFRQADQCSYFYEMDSWGQGTQVTVSS | low polyreactivity |
| QVQLVESGGGLVQAGGSLRLSCAASGIIIGSNAMGWYRQAPGKERELVAAISDSGGSTYYADSVKGRFTISRDNAKNTVYLQMNSLKPEDTAVYYCAAAGRGSWTTYRFDYWGQGTQVTVSS | high polyreactivity |
| QVQLVESGGGLVQAGGSLRLSCAASGIIISVYALGWYRQAPGKERELVATISLSSGRTYYADSVKGRFTISRDNAKNTVYFQMNCLKPEDTAVYYCNAGGRTASRRYYWGQGTQVTVSS | low polyreactivity |
| QVQLVESGGGLVQAGGSLRLSCAASGIILDEYAMGWYRQAPGKERELVAAITWIGGSTYADSVKGRFTISRDNAKNTVYLQMNSLKPEDTAVYYCAADYPSLYVWYGYGWYKYDYWGQGTQVTVSS | low polyreactivity |
| QVQLVESGGGLVQAGGSLRLSCAASGIILDHYAMGWYRQAPGKERELVAAISSGTRTNYADSVKGRFSISRDNAKHTVSLQMNSLKPEDTAVYNCAATIYRRYRSKYSITSYWGQGTQVTVSS | high polyreactivity |

| Sequence | polyreactivity (PSR sort gate) |
| --- | --- |
| QVQLVESGGGLVQAGGSLRLSCAASGIILDHYAMGWYRQAPGKERELVAAISSGTRTNYADSVKGRFTISRDNAKNTVYLQMNSLKPEDTAVYYCAATIYRRYRSKSSITSYWGQGTQVTVSS | high polyreactivity |
| QVQLVESGGGLVQAGGSLRLSCAASGIILDRNAMGWYRQAPGKERELVAAINSIGGSTYYADSVKGRFTISRDNAKKTVYLQMNSLKPEDTAVYYCAAPSTSSYYWGQGTQVTVSS | low polyreactivity |
| QVQLVESGGGLVQAGGSLRLSCAASGIILFRYAMGWYRQAPGKERELVAAISWSGGSTYYADSVKGRFTISRDNAMNTVYLQMNCLKPEDTAVYYCAADHKYYGFGEVDYWGQGNQVTVSS | high polyreactivity |
| QVQLVESGGGLVQAGGSLRLSCAASGIILHYYAMGWYRQAPGKERELVAAISARGGRTYYADSVKGRFTISRDNAKNTVYLQMNSLKPEDTAVYYCARYLRRSSPSPGYGYWGQGTQVTVSS | high polyreactivity |
| QVQLVESGGGLVQAGGSLRLSCAASGIILLRYTMGWYRQAPGKERELVAAISRSAGRTYYADSVKGRFTISRDNAKNTVYLQMNSLKPEDTAVYYCNKASWYNGEIDYWGQVTQVTVSS | high polyreactivity |
| QVQLVESGGGLVQAGGSLRLSCAASGIILPYYVMGWYRQAPGKERELVAAISSGGRTYYADSVKGRFTISRDNAKNTVYLQMNSLKPEDTAVYYCNAYFTGKWYDYWGQGTQVTVSS | high polyreactivity |
| QVQLVESGGGLVQAGGSLRLSCAASGIILRRYAMGWYRQAPGKERELVARISYRGGRTNYADSVKGRFTISRDNAKNTVYLQMNSLKPEDTAVYYCAAVAWYYHEGTAYNYWGQGTQVTVSS | high polyreactivity |
| QVQLVESGGGLVQAGGSLRLSCAASGIILRYYAMGWYRQAPGKERELVAAITRGGSTNYADSVKGRFTISRDNAKNTVYLQMNSLKPEDTAVYYCAADVVFWFSNVAWGDFGYWGQGTQVTVSS | low polyreactivity |
| QVQLVESGGGLVQAGGSLRLSCAASGIILSDYAMGWYRPAPGKERELVAAITSGGGSTYYADSVKGRFTISRDNAKNTVYLQMNSLNPEDTAVYFCAADLTSYYGGDYWGQGTQVTVSS | low polyreactivity |
| QVQLVESGGGLVQAGGSLRLSCAASGIILSYYVMGWYRQAPGKERELVAAISLRGGSRTYYADSVNGRFTISRDNAKNTVYLQMNSLKPEDTAVYYCAKLRWVYGRQTLMDYWGQGTQVTVSS | high polyreactivity |
| QVQLVESGGGLVQAGGSLRLSCAASGIILTVYAMGWYRQAPGKERELVATISRRGGNTYYADSVKGRFTISRDNAKNTVYLQMNSLKPEDTAVYYCNKAYQYGGYYYWGQGTQVTVSS | high polyreactivity |
| QVQLVESGGGLVQAGGSLRLSCAASGIILVYNAMGWYRQAPGKERELVAAISSSGGTTYYADSVKGRFTISRDNAKNTVYLQMNSLKPEDTAVYYCNAALPVTRSERYGSDYWGQGTQVTVSS | low polyreactivity |
| QVQLVESGGGLVQAGGSLRLSCAASGIILYGYDMGWYRQAPGKERELVAAISSSGGSTYYADSVKGRFTISRDNAKNTVYLQMNSLKPEDTAVYYCAASKRYYGQLLTGGYYGYYYCGQGTQVTVSS | high polyreactivity |
| QVQLVESGGGLVQAGGSLRLSCAASGIILYVNAMGWYRQAPGKEREFVAAISWGGGSTYYADSVKGRFTISRDNAKNTVYLQMNSLKPEDTAVYYCAAEFWSGYPTYTYDYWGQGTQVTVSS | low polyreactivity |
| QVQLVESGGGLVQAGGSLRLSCAASGIILYVNAMGWYRQAPGKERELVAAISWGGGSTYYADSVKGRFTISRDNAKNTVYLQMNSLKPEDTAVYYCAAEFWSGYPTYTYDYWGQGTQVTVSS | low polyreactivity |
| QVQLVESGGGLVQAGGSLRLSCAASGIIPSYAMGWYRQAPGKERELVAGISRSGGSTYYADSVKGRFTISRDNAKNTVYLQMNSLKPEDTAVYYCAARVKVRDFKGYYWGQGTQVTVSS | high polyreactivity |
| QVQLVESGGGLVQAGGSLRLSCAASGIISGDYALGWYRQAPGKERELVARITSGDSTNYADSVKGRFTISRDNAKNTVYLQMNSLKPEDTAVYYCAADRVWAYWTYGYWGQGTQVTVSS | low polyreactivity |
| QVQLVESGGGLVQAGGSLRLSCAASGIISGDYAMAWYRQAHGKERELVARITSGDSTNYADSVKGRFTISRDNAKNTVYLQMNSLKPEDTAVYYCAADRVWAYWTYGYWGQGTQVTVSS | low polyreactivity |
| QVQLVESGGGLVQAGGSLRLSCAASGIISIFNVMGWYRQAPGKERELVASITGRGGSTFYADSVKGRFTISRDNAKNTVYLQMNSLKPEDTAVYYCATDTGYTYPVTGLYDYWGQGTQVTVSS | low polyreactivity |
| QVQLVESGGGLVQAGGSLRLSCAASGIIVEYYTMGWKRQAPGKERELVASITYDGDTTYYADSVKGRFTISRDNAKITVYLQMNSRKPEDTAVYYCAADYYYVYSSFGHYYWGQGTQVTVSS | low polyreactivity |
